Assay results: patent US20220282217A1 (BIONTECH US, published 2022)

Each binder was assayed against T1, HLA-A03.01 (human) (assay: competition with radiolabeled reference peptide, purified MHC I).
T1 construct: Purified class I MHC
Protocol: (§1) Peptides were incubated at varying concentrations with these complexes for 2 days, and the amount of remaining radiolabeled peptide bound to […] was measured using size exclusion gel-filtration.

| Binder | IC50 |
| --- | --- |
| KMRKKYAQK (also called THAP5(-1)) | 5.7 nM |
| KTFEKKGEK (also called TTK(-1)) | 32.2 nM |
| FVMSDTTYK (also called TTK(-1)) | 66.9 nM |
| AMTTSSSQKN (also called TGFBR2(-1)) | 2340 nM |
| HLQLKSCRRK (also called SMAP1(-1)) | 96.9 nM |
| SLKKVPALKK (also called SMAP1(-1)) | 9.6 nM |
| RVNTAWKTK (also called TFAM(+1)) | 8.6 nM |
| KRVNTAWKTK (also called TFAM(+1)) | 332 nM |
| RVNTAWKTKK (also called TFAM(+1)) | 2.3 nM |
| LFVMSDTTYK (also called TTK(-1)) | 749 nM |

Each binder was assayed against T2, HLA-A02.01 (human) in the same assay as above.
T2 construct: Purified class I MHC
Protocol: as §1

| Binder | IC50 |
| --- | --- |
| GLVDEQQEV (also called SF3B1, K700E) | 44 nM |
| NSFEVCVCA (also called TP53, R273C) | 2200 nM |
| NSFEVHVCA (also called TP53, R273H) | 503 nM |
| ALSEHCPTT (also called TP53, CSES) | 79 nM |
| GLLAFWDSQV (also called TP53, AAVG) | 10 nM |
| LLAFWDSQV (also called TP53, AAVG) | 68 nM |
| SMNRRPILT (also called TP53, G245S) | 3840 nM |
| ALNSEALSV (also called TMPRSS2: ERG) | 14 nM |
| YMCNSSCMGS (also called TP53, G245S) | 81 nM |
| GMNQRPILTI (also called TP53, R248Q) | 709 nM |
| SMLTDSLFL (also called VHL, QCIL) | 31 nM |
| LLGRNSFEVC (also called TP53, R273C) | 2080 nM |
| GMNQRPILT (also called TP53, R248Q) | 3030 nM |
| GMNWRPILT (also called TP53, R248W) | 1130 nM |

These binders were tested against T3, HLA-B08.01 (human) (assay: pMHC-I dissociation half-life, 125I-b2m).
T3 construct: Purified class I MHC
Protocol: (§2) Briefly, synthetic genes encoding biotinylated MHC-I heavy and light chains are expressed in E. coli and purified from inclusion bodies using standard methods. […] These reactions are carried out in streptavidin coated microplates to bind the biotinylated MHC-I heavy chains to the surface and allow measurement of radiolabeled light chain to monitor complex formation. Dissociation is initiated by addition of higher concentrations of unlabeled light-chain and incubation at 37° C. Stability is defined as the length of time in hours it takes for half of the complexes to dissociate, as measured by scintillation counts.

| Binder | Stability (T1/2 (h)) |
| --- | --- |
| CMGGMNWRPI (also called TP53, R248W) | 0 h |
| TQLARFFPI (also called RNF43, RHTP) | 0 h |
| LPRKPTRAA (also called TP53, QPSL) | 0 h |
| MALNSEALSV (also called TMPRSS2: ERG) | 0 h |
| SMNRRPILTI (also called TP53, G245S) | 0 h |
| MLTDSLFLPI (also called VHL, QCIL) | 0 h |
| SMNRRPILT (also called TP53, G245S) | 0 h |
| MNWRPILTI (also called TP53, R248W) | 0 h |
| GMNQRPILTI (also called TP53, R248Q) | 0 h |
| GMNWRPILTI (also called TP53, R248W) | 0 h |
| NQRPILTII (also called TP53, R248Q) | 0 h |
| CMGSMNRRPI (also called TP53, G245S) | 0 h |

These binders were tested against T2, HLA-A02.01 (assay: pMHC-I dissociation half-life, 125I-b2m).
Protocol: as §2

| Binder | Stability (T1/2 (h)) |
| --- | --- |
| GLVDEQQEV (also called SF3B1, K700E) | 7.4 h |
| VVPCEPPEV (also called TP53, Y220C) | 0.9 h |
| NSFEVCVCA (also called TP53, R273C) | 0 h |
| NSFEVHVCA (also called TP53, R273H) | 0 h |
| ALSEHCPTT (also called TP53, CSES) | 27.3 h |
| GLLAFWDSQV (also called TP53, AAVG) | 14.2 h |
| ALNSEALSVV (also called TMPRSS2: ERG) | 2.9 h |
| LLAFWDSQV (also called TP53, AAVG) | 12.8 h |
| SMNRRPILT (also called TP53, G245S) | 0 h |
| ALNSEALSV (also called TMPRSS2: ERG) | 9.1 h |
| YMCNSSCMGS (also called TP53, G245S) | 0.8 h |
| GMNQRPILTI (also called TP53, R248Q) | 0.4 h |
| SMLTDSLFL (also called VHL, QCIL) | 9.8 h |
| LLGRNSFEVC (also called TP53, R273C) | 0 h |
| GMNQRPILT (also called TP53, R248Q) | 0 h |
| GMNWRPILT (also called TP53, R248W) | 0 h |

The binders below were run against HLA-A02.01 (human) (assay: competition vs radiolabeled reference peptide on purified MHC I, gel filtration).
Protocol: as §1

| Binder | IC50 |
| --- | --- |
| ELFPLIFPA (also called C11orf95: RELA) | 13 nM |
| VLERCPHRPI (also called FGFR3, S249C) | 15300 nM |
| IQLQDKFEHL (also called EGFR: SEPT14) | 4260 nM |
| KLFSCLSFLS (also called C15ORF40(+1)) | 0.6 nM |

Each binder was assayed against T4, HLA-A03.01 (human) in the same assay as above.
T4 construct: As for HLA-A02.01
Protocol: as §1

| Binder | IC50 |
| --- | --- |
| TLNSPPLKK (also called β2M, . . ; MPAV) | 5.4 nM |
| ALFFFFFETK (also called C15ORF40(+1)) | 216 nM |
| CTTLNSPPLK (also called β2M, . . ; MPAV) | 63.6 nM |
| LTSSSREWK (also called β2M, . . ; SIRH) | 118 nM |
| MANGSLLNY (also called BTK, C481S) | 35.6 nM |
| RMKVPLMK (also called FAM111B(-1)) | 33 nM |
| LFFFFFETK (also called C15ORF40(+1)) | 413 nM |
| TTLNSPPLK (also called β2M, . . ; MPAV) | 9.8 nM |
| LLTSSSREWK (also called β2M, . . ; SIRH) | 1770 nM |
| SLQPPPPGFK (also called C15ORF40(+1)) | 19 nM |
| TTLNSPPLKK (also called β2M, . . ; MPAV) | 14.3 nM |
| LSFLSSWDYR (also called C15ORF40(+1)) | 101 nM |
| KLFSCLSFLS (also called C15ORF40(+1)) | 104 nM |

These binders were tested against HLA-A02.01 (human) (assay: pMHC-I complex dissociation at 37 C, 125I-b2m, half-life).
Protocol: as §2

| Binder | Stability (T1/2 (h)) |
| --- | --- |
| QLQDKFEHL (also called EGFR: SEPT14) | 0.6 h |
| ELFPLIFPA (also called C11orf95: RELA) | 5.1 h |
| VLERCPHRPI (also called FGFR3, S249C) | 0 h |
| IQLQDKFEHL (also called EGFR: SEPT14) | 0.2 h |

Each binder was assayed against T5, HLA-B08.01 (human) in the same assay as above.
T5 construct: As for HLA-A02.01
Protocol: as §2

| Binder | Stability (T1/2 (h)) |
| --- | --- |
| SLPRFILMEL (also called ALK, L1196M) | 0 h |
| IMQLMPFGCL (also called EGFR, T790M) | 0 h |
| LQSLPRFILM (also called ALK, L1196M) | 0 h |
| QLIMQLMPF (also called EGFR, T790M) | 0 h |
| MQLMPFGCL (also called EGFR, T790M) | 0 h |
| QLQDKFEHL (also called EGFR: SEPT14) | 0 h |
| ELFPLIFPA (also called C11orf95: RELA) | 0 h |
| VQLIMQLMPF (also called EGFR, T790M) | 0 h |
| LTINKEEAL (also called BCR: ABL (e13a2, aka b2a2)) | 0 h |
| VLERCPHRPI (also called FGFR3, S249C) | 0 h |
| SVCFFFFSV (also called CNOT1(+1)) | 0 h |
| MQLMPFGCLL (also called EGFR, T790M) | 0 h |
| IQLQDKFEHL (also called EGFR: SEPT14) | 0 h |
| MANGSLLNYL (also called BTK, C481S) | 0 h |
| SLLNYLREM (also called BTK, C481S) | 0 h |
